Molecular target: HLA-A*02:01 (Homo sapiens, UniProt P04439, D140Y/D185E/D98H/E176V/E277Q/G131W/G231S/I119V/I121R/I166T/I218V/L300P/L318F/N151K/N90K/P208A/P217A/Q86G/Q94H/R138H/R169H/T345S)
Assay: MHC binding assay (UV-ligand exchange, beta2m ELISA)
Settings: binding to HLA-A*02:01, β2m ELISA
From the text: Candidate peptides for T cell based therapies according to the present invention were further tested for their MHC binding capacity (affinity). The individual peptide-MHC complexes were produced by UV-ligand exchange, where a UV-sensitive peptide is cleaved upon UV-irradiation, and exchanged with the peptide of interest as analyzed. Only peptide candidates that can effectively bind and stabilize the peptide-receptive MHC molecules prevent dissociation of the MHC complexes. To determine the yield of the exchange reaction, an ELISA was performed based on the detection of the light chain (β2m) of stabilized MHC complexes. The assay was performed as generally described in Rodenko et al. (Rodenko et al., 2006).
96 well MAXISorp plates (NUNC) were coated over night with 2 ug/ml streptavidin in PBS at room temperature, washed 4× and blocked for 1 h at 37° C. in 2% BSA containing blocking buffer. Refolded HLA-A*02:01/MLA-001 monomers served as standards, covering the range of 15-500 ng/ml. Peptide-MHC monomers of the UV-exchange reaction were diluted 100 fold in blocking buffer. Samples were incubated for 1 h at 37° C., washed four times, incubated with 2 ug/ml HRP conjugated anti-β2m for 1 h at 37° C., washed again and detected with TMB solution that is stopped with […]. Absorption was measured at 450 nm. Candidate peptides that show a high exchange yield (preferably higher than 50%, most preferred higher than 75%) are generally preferred for a generation and production of antibodies or fragments thereof, and/or T cell receptors or fragments thereof, as they show sufficient avidity to the MHC molecules and prevent dissociation of the MHC complexes.

| Peptide exchange (MHC class I binding score, peptide exchange yield) | Substance |
| --- | --- |
| ++ (≧20% = ++) | 258 (QLVQRVASV; listed as Homo sapiens) [compound 258] |
| +++ (≧50 = +++) | 63 (KLLPMVIQL; listed as Homo sapiens) [compound 63] |
| +++ (≧50 = +++) | 145 (ALEEKLENV; listed as Homo sapiens) [compound 145] |
| +++ (≧50 = +++) | 144 (FLISQTPLL; listed as Homo sapiens) [compound 144] |
| +++ (≧50 = +++) | 68 (QLMNLIRSV; listed as Homo sapiens) [compound 68] |
| ++ (≧20% = ++) | 222 (LLTGVFAQL; listed as Homo sapiens) [compound 222] |
| +++ (≧50 = +++) | 220 (ALSELERVL; listed as Homo sapiens) [compound 220] |
| +++ (≧50 = +++) | 88 (LLLPLELSLA; listed as Homo sapiens) [compound 88] |
| +++ (≧50 = +++) | 7 (ALLQALMEL; listed as Homo sapiens) [compound 7] |
| +++ (≧50 = +++) | 148 (YLILSSHQL; listed as Homo sapiens) [compound 148] |
| ++ (≧20% = ++) | 221 (IMLNSVEEI; listed as Homo sapiens) [compound 221] |
| +++ (≧50 = +++) | 111 (AQLEGKLVSI; listed as Homo sapiens) [compound 111] |
| +++ (≧50 = +++) | 261 (GLAALAVHL; listed as Homo sapiens) [compound 261] |
| ++ (≧20% = ++) | 184 (ALDSTIAHL; listed as Homo sapiens) [compound 184] |
| ++ (≧20% = ++) | 141 (NIDINNNEL; listed as Homo sapiens) [compound 141] |
| +++ (≧50 = +++) | 5 (GLVDIMVHL; listed as Homo sapiens) [compound 5] |
| ++++ (≧75% = ++++) | 84 (FLLEREQLL; listed as Homo sapiens) [compound 84] |
| +++ (≧50 = +++) | 278 (VLEDKVLSV; listed as Homo sapiens) [compound 278] |
| +++ (≧50 = +++) | 136 (LLWDAPAKC; listed as Homo sapiens) [compound 136] |
| +++ (≧50 = +++) | 200 (IMPTFDLTKV; listed as Homo sapiens) [compound 200] |
| +++ (≧50 = +++) | 16 (SLADLSLLL; listed as Homo sapiens) [compound 16] |
| +++ (≧50 = +++) | 147 (GLLSALENV; listed as Homo sapiens) [compound 147] |
| +++ (≧50 = +++) | 130 (QLYGSAITL; listed as Homo sapiens) [compound 130] |
| ++ (≧20% = ++) | 235 (SLLNQPKAV; listed as Homo sapiens) [compound 235] |
| ++ (≧20% = ++) | 151 (DISKRIQSL; listed as Homo sapiens) [compound 151] |
| +++ (≧50 = +++) | 228 (SLLELDGINLRL; listed as Homo sapiens) [compound 228] |

| Peptide exchange (MHC class I binding score, peptide exchange yield) | Substance |
| --- | --- |
| ++ (≧20% = ++) | 245 (ALLEEEEGV; listed as Homo sapiens) [compound 245] |
| +++ (≧50 = +++) | 58 (HLLGEGAFAQV; listed as Homo sapiens) [compound 58] |
| +++ (≧50 = +++) | 25 (LLWGHPRVALA; listed as Homo sapiens) [compound 25] |
| ++ (≧20% = ++) | 247 (NLLIDDKGTIKL; listed as Homo sapiens) [compound 247] |
| ++ (≧20% = ++) | 106 (VLLGSVVIFA; listed as Homo sapiens) [compound 106] |
| +++ (≧50 = +++) | 45 (FLPVSVVYV; listed as Homo sapiens) [compound 45] |
| ++ (≧20% = ++) | 64 (SLYAGSNNQV; listed as Homo sapiens) [compound 64] |
| +++ (≧50 = +++) | 62 (SLVENIHVL; listed as Homo sapiens) [compound 62] |
| +++ (≧50 = +++) | 226 (SLAGNLQEL; listed as Homo sapiens) [compound 226] |
| +++ (≧50 = +++) | 286 (FLTEMVHFI; listed as Homo sapiens) [compound 286] |
| +++ (≧50 = +++) | 108 (FIANLPPELKA; listed as Homo sapiens) [compound 108] |
| ++ (≧20% = ++) | 229 (YLYELEHAL; listed as Homo sapiens) [compound 229] |
| +++ (≧50 = +++) | 225 (FLPQPVPLSV; listed as Homo sapiens) [compound 225] |
| +++ (≧50 = +++) | 131 (SLYPHFTLL; listed as Homo sapiens) [compound 131] |
| ++ (≧20% = ++) | 70 (GLTEKTVLV; listed as Homo sapiens) [compound 70] |
| +++ (≧50 = +++) | 47 (GLNGFNVLL; listed as Homo sapiens) [compound 47] |
| ++ (≧20% = ++) | 238 (HLQEKLQSL; listed as Homo sapiens) [compound 238] |
| +++ (≧50 = +++) | 159 (QLGPVPVTI; listed as Homo sapiens) [compound 159] |
| +++ (≧50 = +++) | 280 (HLWGHALFL; listed as Homo sapiens) [compound 280] |
| +++ (≧50 = +++) | 150 (VLLDMVHSL; listed as Homo sapiens) [compound 150] |
| ++++ (≧75% = ++++) | 1 (KLQEKIQEL; listed as Homo sapiens) [compound 1] |
| ++ (≧20% = ++) | 74 (GLAFLPASV; listed as Homo sapiens) [compound 74] |
| ++ (≧20% = ++) | 90 (AILNVDEKNQV; listed as Homo sapiens) [compound 90] |
| +++ (≧50 = +++) | 125 (AALEVLAEV; listed as Homo sapiens) [compound 125] |
| +++ (≧50 = +++) | 54 (YLVPGLVAA; listed as Homo sapiens) [compound 54] |

Source: patent US9802997B2, “Peptides and combination of peptides for use in immunotherapy against various tumors” (immatics biotechnologies GmbH, priority 2015, dated 2017)
